These results are taken from article PMC8307404, “Crystal Structure-Guided Design of Bisubstrate Inhibitors and Photoluminescent Probes for Protein Kinases of the PIM Family” (Molecules, 2021).

Molecules are shown by their SMILES. Square brackets hold non-standard residues; d marks the D form. Peptide text beside a SMILES is read from it. * marks the point of attachment. X3 = O=C(CCCCCNCc1nc2c(sc3cc(Br)cnc32)c(=O)[nH]1)*

What all share (assay): Kinase profiling (radiometric filter-binding)
Assay type in all cases: biochemical

In one data set the target is GSK3 (Homo sapiens, UniProt P49841). The note with it: GSK3 (Greek letter lost), 1 µM inhibitor; read-out: Residual activity, %. The method, boiled down:
(§1)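 Radiometric filter-binding; human PKs; ATP ≤ KM per kinase; compound 1 µM final; readout = % residual activity vs no-inhibitor control.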

The target of a further data set is MST3 (Homo sapiens, UniProt Q9Y6E0). Particulars: MST3, 1 µM inhibitor; read-out: Residual activity, %. The method, boiled down:
as §1

For another data set, the target named is p38 MAPK (Homo sapiens, UniProt Q16539). The note with it: first of four lines (Greek letter lost), 1 µM inhibitor, read-out: Residual activity, %. The method, boiled down:
as §1

The target in another data set is T1, EPH-B4 (Homo sapiens, UniProt P54760).
T1 sequence (P54760 16-987): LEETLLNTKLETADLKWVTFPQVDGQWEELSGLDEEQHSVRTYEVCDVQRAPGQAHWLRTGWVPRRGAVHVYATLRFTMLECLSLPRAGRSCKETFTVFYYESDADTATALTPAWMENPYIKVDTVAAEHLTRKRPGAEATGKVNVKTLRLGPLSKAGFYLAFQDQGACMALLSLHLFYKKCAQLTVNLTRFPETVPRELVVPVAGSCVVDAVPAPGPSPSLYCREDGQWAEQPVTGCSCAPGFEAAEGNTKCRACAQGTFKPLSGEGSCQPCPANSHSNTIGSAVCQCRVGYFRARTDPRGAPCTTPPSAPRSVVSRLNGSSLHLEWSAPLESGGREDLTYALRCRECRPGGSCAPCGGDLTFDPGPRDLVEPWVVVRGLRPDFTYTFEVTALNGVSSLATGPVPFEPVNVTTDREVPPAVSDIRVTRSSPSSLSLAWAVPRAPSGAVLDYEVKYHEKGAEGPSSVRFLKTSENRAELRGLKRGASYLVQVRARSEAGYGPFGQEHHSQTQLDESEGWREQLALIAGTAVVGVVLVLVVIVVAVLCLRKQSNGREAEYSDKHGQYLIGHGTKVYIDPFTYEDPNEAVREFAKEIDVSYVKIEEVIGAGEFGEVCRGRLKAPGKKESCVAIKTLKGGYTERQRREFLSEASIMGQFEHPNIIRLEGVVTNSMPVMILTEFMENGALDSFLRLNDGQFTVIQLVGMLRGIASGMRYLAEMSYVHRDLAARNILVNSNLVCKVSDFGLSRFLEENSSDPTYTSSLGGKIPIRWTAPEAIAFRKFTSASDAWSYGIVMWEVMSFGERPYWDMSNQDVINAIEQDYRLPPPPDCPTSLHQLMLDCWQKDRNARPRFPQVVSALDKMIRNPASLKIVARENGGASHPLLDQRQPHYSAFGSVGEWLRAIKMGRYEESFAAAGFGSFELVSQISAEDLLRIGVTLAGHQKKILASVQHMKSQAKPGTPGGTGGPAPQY
The note with it: EPH-B4, 1 µM inhibitor; read-out: Residual activity, %. The essentials: as §1

In the next data set the target is T2, EPH-B1 (Homo sapiens, UniProt P54762).
T2 sequence (P54762 18-984): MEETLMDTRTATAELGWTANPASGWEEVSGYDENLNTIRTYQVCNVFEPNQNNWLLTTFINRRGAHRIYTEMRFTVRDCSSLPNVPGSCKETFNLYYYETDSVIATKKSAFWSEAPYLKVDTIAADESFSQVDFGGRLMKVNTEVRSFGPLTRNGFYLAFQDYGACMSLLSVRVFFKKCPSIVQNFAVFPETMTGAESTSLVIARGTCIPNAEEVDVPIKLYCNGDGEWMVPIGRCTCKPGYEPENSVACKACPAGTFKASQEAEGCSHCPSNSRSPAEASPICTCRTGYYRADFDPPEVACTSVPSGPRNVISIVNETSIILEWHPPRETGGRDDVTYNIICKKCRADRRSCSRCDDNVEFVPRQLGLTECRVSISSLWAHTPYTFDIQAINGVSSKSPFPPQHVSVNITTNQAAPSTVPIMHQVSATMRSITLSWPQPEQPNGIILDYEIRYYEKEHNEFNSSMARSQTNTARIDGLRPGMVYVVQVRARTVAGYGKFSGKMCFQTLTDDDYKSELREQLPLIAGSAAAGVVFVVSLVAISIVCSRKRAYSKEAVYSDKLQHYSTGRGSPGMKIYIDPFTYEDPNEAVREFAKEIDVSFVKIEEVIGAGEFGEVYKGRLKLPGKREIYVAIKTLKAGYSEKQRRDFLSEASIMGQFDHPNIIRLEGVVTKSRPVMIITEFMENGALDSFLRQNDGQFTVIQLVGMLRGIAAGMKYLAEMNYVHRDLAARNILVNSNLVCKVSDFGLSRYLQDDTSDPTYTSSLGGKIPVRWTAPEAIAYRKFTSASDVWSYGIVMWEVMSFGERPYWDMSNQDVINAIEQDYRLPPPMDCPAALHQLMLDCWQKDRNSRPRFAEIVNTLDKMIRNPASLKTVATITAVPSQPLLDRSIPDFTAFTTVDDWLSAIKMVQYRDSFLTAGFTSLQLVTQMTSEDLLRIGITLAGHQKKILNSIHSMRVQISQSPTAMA
Particulars: EPH-B1, 1 µM inhibitor; read-out: Residual activity, %. The method, boiled down:
as §1

A further data set addresses T3, TSSK1 (Homo sapiens, UniProt Q9BXA7).
T3 sequence (Q9BXA7 1-367): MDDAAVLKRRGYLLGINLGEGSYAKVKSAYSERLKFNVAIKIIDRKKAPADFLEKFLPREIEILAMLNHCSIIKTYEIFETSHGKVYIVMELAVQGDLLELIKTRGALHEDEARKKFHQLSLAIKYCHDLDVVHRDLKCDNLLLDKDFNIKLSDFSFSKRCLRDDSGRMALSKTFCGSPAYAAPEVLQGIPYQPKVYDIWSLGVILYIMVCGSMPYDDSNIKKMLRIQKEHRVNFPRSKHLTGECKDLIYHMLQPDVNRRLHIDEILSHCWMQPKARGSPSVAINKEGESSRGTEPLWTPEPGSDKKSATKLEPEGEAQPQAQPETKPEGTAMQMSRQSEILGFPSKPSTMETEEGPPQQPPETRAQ
The note with it: TSSK1, 1 µM inhibitor; read-out: Residual activity, %. The essentials:
as §1

Sequence of MST3 (Q9Y6E0 whole entry): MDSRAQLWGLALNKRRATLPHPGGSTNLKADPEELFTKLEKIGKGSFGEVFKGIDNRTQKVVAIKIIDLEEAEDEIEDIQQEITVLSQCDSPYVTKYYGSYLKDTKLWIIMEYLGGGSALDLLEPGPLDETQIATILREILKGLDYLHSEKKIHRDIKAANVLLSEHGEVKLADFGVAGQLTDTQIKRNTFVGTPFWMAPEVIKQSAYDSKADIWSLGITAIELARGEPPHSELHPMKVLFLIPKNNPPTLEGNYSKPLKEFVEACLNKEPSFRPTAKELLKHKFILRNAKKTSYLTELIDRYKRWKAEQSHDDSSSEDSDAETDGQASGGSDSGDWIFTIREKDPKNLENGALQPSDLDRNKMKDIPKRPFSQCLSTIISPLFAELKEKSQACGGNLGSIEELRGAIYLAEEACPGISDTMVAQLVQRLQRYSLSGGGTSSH
Sequence of GSK3 (P49841 whole entry): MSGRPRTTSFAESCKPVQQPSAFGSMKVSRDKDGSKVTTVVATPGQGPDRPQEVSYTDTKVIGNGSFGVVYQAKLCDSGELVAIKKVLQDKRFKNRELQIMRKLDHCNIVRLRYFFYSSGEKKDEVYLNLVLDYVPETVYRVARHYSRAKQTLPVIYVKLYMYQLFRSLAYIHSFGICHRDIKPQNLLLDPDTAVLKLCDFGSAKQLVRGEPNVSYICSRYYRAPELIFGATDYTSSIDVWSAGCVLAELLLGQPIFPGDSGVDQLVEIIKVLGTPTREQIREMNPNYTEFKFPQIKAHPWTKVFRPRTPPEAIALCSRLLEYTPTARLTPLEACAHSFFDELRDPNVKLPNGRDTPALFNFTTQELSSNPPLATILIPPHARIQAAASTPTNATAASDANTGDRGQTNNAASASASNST
Sequence of p38 MAPK (Q16539 whole entry): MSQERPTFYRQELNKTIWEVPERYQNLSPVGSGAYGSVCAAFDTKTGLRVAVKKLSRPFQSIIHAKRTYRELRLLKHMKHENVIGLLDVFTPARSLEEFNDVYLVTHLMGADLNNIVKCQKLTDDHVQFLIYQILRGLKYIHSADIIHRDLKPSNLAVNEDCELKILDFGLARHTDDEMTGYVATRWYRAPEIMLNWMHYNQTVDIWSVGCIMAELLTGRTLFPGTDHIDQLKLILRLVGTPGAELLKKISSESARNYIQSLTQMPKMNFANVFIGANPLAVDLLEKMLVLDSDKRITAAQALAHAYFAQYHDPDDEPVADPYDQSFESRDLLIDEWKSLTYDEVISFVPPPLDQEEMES

Regarding `N=C(N)NCCC[C@@H](NC(=O)CCCCCNCc1nc2c(sc3cc(Br)cnc32)c(=O)[nH]1)C(=O)N[C@H](CCCNC(=N)N)C(=O)N[C@H](CCCNC(=N)N)C(=O)N[C@H](CCCNC(=N)N)C(=O)N[C@H](CCCNC(=N)N)C(=O)N[C@H](CCCNC(=N)N)C(=O)N[C@H](CCCCN)C(N)=O` [ARC-3126, BPTP-Ahx-(D-Arg)6-D-Lys-NH2] (X3-[dR][dR][dR][dR][dR][dR][dK]-NH2), the remaining activity at 1 µM stood at 80% with GSK3; 102 ± 5% in the data set with MST3; 116 ± 4% with p38 MAPK; 101 ± 10% with EPH-B4; 96 ± 6% in the data set with EPH-B1; 97 ± 16% in the data set with TSSK1.

For the compound `N=C(N)NCCC[C@@H](NC(=O)CNC(=O)[C@@H](CCCNC(=N)N)NC(=O)[C@@H](CCCNC(=N)N)NC(=O)CCCCCCCNCc1nc2c(sc3ccc(Br)cc32)c(=O)[nH]1)C(=O)N[C@H](CCCCN)C(N)=O` [Compound 2, BBTP-Aoc-(D-Arg)2-Gly-D-Arg-D-Lys-NH2], the remaining activity at 1 µM with GSK3 was 75 ± 8%; with MST3 it was 112 ± 8%; in the data set with p38 MAPK, 116 ± 10%; with EPH-B4, 118 ± 11%; in the data set with EPH-B1 it was 99 ± 15%; with TSSK1, 108%.

Consider `N=C(N)NCCC[C@@H](NC(=O)CNC(=O)[C@@H](CCCNC(=N)N)NC(=O)[C@@H](CCCNC(=N)N)NC(=O)Cn1cc(CNCc2nc3c(sc4ccc(Br)cc43)c(=O)[nH]2)nn1)C(=O)N[C@H](CCCCN)C(N)=O` [Compound 3, BBTP-Amt-(D-Arg)2-Gly-D-Arg-D-Lys-NH2], for which the remaining activity at 1 µM came out at 64 ± 8% with GSK3; 98 ± 1% with MST3; 110 ± 7% with p38 MAPK; 98 ± 13% in the data set with EPH-B4; 106 ± 11% with EPH-B1; 100 ± 10% in the data set with TSSK1.

As to `N=C(N)NCCC[C@@H](NC(=O)CCCCCNC(=O)Cn1cnc2c(I)c(I)c(I)c(I)c21)C(=O)N[C@H](CCCNC(=N)N)C(=O)N[C@H](CCCNC(=N)N)C(=O)N[C@H](CCCNC(=N)N)C(=O)N[C@H](CCCNC(=N)N)C(=O)N[C@H](CCCNC(=N)N)C(=O)N[C@H](CCCCN)C(N)=O` [ARC-3125, TIBI-CH2-C(=O)-Ahx-(D-Arg)6-D-Lys-NH2], the remaining activity at 1 µM stood at 140 ± 13% in the data set with GSK3; 51 ± 24% with MST3; 53 ± 8% in the data set with p38 MAPK; 119 ± 7% with EPH-B4; 106 ± 12% in the data set with EPH-B1; 63 ± 6% in the data set with TSSK1.

Take `N=C(N)NCCC[C@@H](NC(=O)CNC(=O)[C@@H](CCCNC(=N)N)NC(=O)[C@@H](CCCNC(=N)N)NC(=O)CCCCCCCNCc1nc2c(sc3cc(Br)cnc32)c(=O)[nH]1)C(=O)N[C@H](CCCCN)C(N)=O` [Compound 1, BPTP-Aoc-(D-Arg)2-Gly-D-Arg-D-Lys-NH2]: the remaining activity at 1 µM was found to be 110 ± 12% in the data set with GSK3; 104 ± 3% in the data set with MST3; 113 ± 10% with p38 MAPK; 104 ± 2% with EPH-B4; 103 ± 9% in the data set with EPH-B1; 98 ± 9% in the data set with TSSK1.
